Test system: engineered chimeric receptor SEQ ID NO: 33 and its mutants (human α7-nAChR ligand binding domain / human GlyRα1 ion pore domain) in Lenti-X 293T cells
Test: YFP fluorescence quenching anion reporter plate reader assay (percent quench, EC50)
Type: cell-based
Settings: for YFP fluorescence quenching using CNL001 (percent quench): receptor named in row; for YFP fluorescence quenching using Varenicline, 3 nM var: ligand Varenicline 3 nM; for YFP fluorescence quenching using Varenicline, 30 nM var: ligand Varenicline 30 nM; for YFP fluorescence quenching using Varenicline, 300 nM var: ligand Varenicline 300 nM; for YFP fluorescence quenching using Varenicline, 500 nM var: ligand Varenicline 500 nM; for YFP fluorescence quenching using Varenicline, 1 uM var: ligand Varenicline 1 uM
Procedure, shortened: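 Lenti-X 293T cells co-expressing an anion-quenchable YFP were transiently transfected with receptor DNA, then ligand was added in NaI-substituted buffer (pH 7.2) after 30 min at 37 °C. Fluorescence was read about 2 min; percent quench = mean of last 10 s over 15 s pre-ligand baseline.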

B1: CODA339: engineered receptor: L131D in SEQ ID NO: 33 (protein)
chain: MRCSPGGVWLALAASLLHVSLQGEFQRKLYKELVKNYNPLERPVANDSQPLTVYFSLSLLQIMDVDEKNQVLTTNIWLQMSWTDHYLQWNVSEYPGVKTVRFPDGQIWKPDILLYNSADERFDATFHTNVDVNSSGHCQYLPPGIFKSSCPMDLKNFPMDVQTCKLKFGSWSYGGWSLDLQMQEADISGYIPNGEWDLVGIPGKRSERFYECCKEPYPDVTFTVTMRRRMGYYLIQMYIPSLLIVILSWISFWINMDAAPARVGLGITTVLTMTTQSSGSRASLPKVSYVKAIDIWMAVCLLFVFSALLEYAAVNFVSRQHKELLRFRRKRRHHKSPMLNLFQEDEAGEGRFNFSAYGMGPACLQAKDGISVKGANNSNTTNPPPAPSKSPEEMRKLFIQRAKKIDKISRIGFPMAFLIFNMFYWIIYKIVRREDVHNQ
modifications: synthetic sequence of chimeric LGIC
In the case of B1, the “YFP fluorescence quenching using CNL001 (percent quench)” value (1 nM CNL001, first column so headed) is reported as 73.711%, the “YFP fluorescence quenching using CNL001 (percent quench)” value (1 nM CNL001, second column so headed) is reported as 76.44% and the “YFP fluorescence quenching using TC-5619/Bradanicline (percent quench)” value (1 nM brd (TC-5619/Bradanicline)) is reported as 4.12%. For the same molecule, the “YFP fluorescence quenching using TC-5619/Bradanicline (percent quench)” value (3 nM brd (TC-5619/Bradanicline)) was 19.15%, the “YFP fluorescence quenching using CNL001 (percent quench)” value (10 nM CNL001, first column so headed) was 77.049% and the “YFP fluorescence quenching using CNL001 (percent quench)” value (10 nM CNL001, second column so headed) was 77.76%. The “YFP fluorescence quenching using TC-5619/Bradanicline (percent quench)” value (10 nM brd (TC-5619/Bradanicline)) was 68.98%, the “YFP fluorescence quenching using TC-6683 (percent quench)” value (30 nM TC-6683) was −18.32% and the “YFP fluorescence quenching using TC-5619/Bradanicline (percent quench)” value (30 nM brd (TC-5619/Bradanicline)) was 77.29%. The “YFP fluorescence quenching using CNL001 (percent quench)” value (50 nM CNL001, first column so headed) was 77.882%, the “YFP fluorescence quenching using CNL001 (percent quench)” value (50 nM CNL001, second column so headed) was 78.708% and the “YFP fluorescence quenching using ABT-126 (percent quench)” value (50 nM abt (ABT-126)) was −16.65%. The “YFP fluorescence quenching using CNL001 (percent quench)” value (100 nM CNL001, first column so headed) was 79.567%, the “YFP fluorescence quenching using CNL001 (percent quench)” value (100 nM CNL001, second column so headed) was 79.273% and the “YFP fluorescence quenching (percent quench)” value (100 nM CNL002) was 12.83%. The “YFP fluorescence quenching using ABT-126 (percent quench)” value (100 nM abt (ABT-126)) was −12.3%, the “YFP fluorescence quenching using AZD-0328 (percent quench)” value (100 nM azd0328) was 62.87% and the “YFP fluorescence quenching using TC-5619/Bradanicline (percent quench)” value (100 nM brd (TC-5619/Bradanicline)) was 81.41%. For the same molecule, the “YFP fluorescence quenching using TC-6683 (percent quench)” value (300 nM TC-6683) was −17.25%, the “YFP fluorescence quenching using ABT-126 (percent quench)” value (300 nM abt (ABT-126)) was 18.5% and the “YFP fluorescence quenching using AZD-0328 (percent quench)” value (300 nM azd0328) was 77.03%. For the same molecule, the “YFP fluorescence quenching using TC-5619/Bradanicline (percent quench)” value (300 nM brd (TC-5619/Bradanicline)) was 75.79%, the “YFP fluorescence quenching using CNL001 (percent quench)” value (1 uM CNL001, first column so headed) was 79.992% and the “YFP fluorescence quenching using CNL001 (percent quench)” value (1 uM CNL001, second column so headed) was 79.927%. For the same molecule, the “YFP fluorescence quenching (percent quench)” value (1 uM CNL002) was 77.73%, the “YFP fluorescence quenching using ABT-126 (percent quench)” value (1 uM abt (ABT-126)) was 59.09% and the “YFP fluorescence quenching using TC-5619/Bradanicline (percent quench)” value (1 uM brd (TC-5619/Bradanicline)) was 82.26%. For the same molecule, the “YFP fluorescence quenching using TC-6683 (percent quench)” value (3 uM TC-6683) was −10%, the “YFP fluorescence quenching (percent quench)” value (10 uM ach (acetylcholine)) was 4.56% and the “YFP fluorescence quenching (percent quench)” value (30 uM CNL002) was 80.58%. For the same molecule, the “YFP fluorescence quenching using TC-6683 (percent quench)” value (30 uM TC-6683) was −8.51%, the “YFP fluorescence quenching using AZD-0328 (percent quench)” value (30 uM azd0328) was 78.63% and the “YFP fluorescence quenching using TC-6683 (percent quench)” value (100 uM TC-6683) was −9.77%. The “YFP fluorescence quenching (percent quench)” value (100 uM ach (acetylcholine)) was 10.19%, the “YFP fluorescence quenching (percent quench)” value (1 mM ach (acetylcholine)) was 77.34% and the “YFP fluorescence quenching (percent quench)” value (3 mM ach (acetylcholine)) was 77.79%. The “YFP fluorescence quenching using Facinicline, 30 nM fac” value (ligand Facinicline 30 nM) was 12.67, the “YFP fluorescence quenching using Facinicline, 300 nM fac” value (ligand Facinicline 300 nM) was 80.4 and the “YFP fluorescence quenching using Facinicline, 10 uM fac” value (ligand Facinicline 10 uM) was 82.18. For the same molecule, the “YFP fluorescence quenching using Facinicline, 30 uM fac” value (ligand Facinicline 30 uM) was 82.14, the “YFP fluorescence quenching using TC-6987, 1 uM tc6987” value (ligand TC-6987 1 uM) was 50 and the “YFP fluorescence quenching using TC-6987, 3 uM tc6987” value (ligand TC-6987 3 uM) was 80.39. The “YFP fluorescence quenching using TC-6987, 5 uM tc6987” value (ligand TC-6987 5 uM) was 79.93, the “YFP fluorescence quenching using TC-6987, 10 uM tc6987” value (ligand TC-6987 10 uM) was 80.99 and the “YFP fluorescence quenching using TC-6987, 30 uM tc6987” value (ligand TC-6987 30 uM) was 83.11. For the same molecule, the “YFP fluorescence quenching using TC-6987, 50 uM tc6987” value (ligand TC-6987 50 uM) was 83.18, the “YFP fluorescence quenching using TC-6987, 100 uM tc6987” value (ligand TC-6987 100 uM) was 82.16 and the “YFP fluorescence quenching using TC-6987, 300 uM tc6987” value (ligand TC-6987 300 uM) was 64.58. For the same molecule, the “YFP fluorescence quenching using TC-6987, 500 uM tc6987” value (ligand TC-6987 500 uM) was 76.77, the “YFP fluorescence quenching using Varenicline, 3 nM var” value (first column) was −0.902 and the “YFP fluorescence quenching using Varenicline, 3 nM var” value (second column) was −7.62. For the same molecule, the “YFP fluorescence quenching using Varenicline, 30 nM var” value (first column) was −6.009, the “YFP fluorescence quenching using Varenicline, 30 nM var” value (second column) was −3.447 and the “YFP fluorescence quenching using Varenicline, 300 nM var” value (first column) was 49.328. For the same molecule, the “YFP fluorescence quenching using Varenicline, 300 nM var” value (second column) was 47.685, the “YFP fluorescence quenching using Varenicline, 500 nM var” value (first column) was 66.7 and the “YFP fluorescence quenching using Varenicline, 500 nM var” value (second column) was 64.798. The “YFP fluorescence quenching using Varenicline, 1 uM var” value (first column) was 70.85 and the “YFP fluorescence quenching using Varenicline, 1 uM var” value (second column) was 69.038.

From patent US20250152742A1, “COMPOSITIONS AND METHODS FOR NEUROLOGICAL DISEASES” (Trames Bio, Inc., priority 2022, published 2025)
